Reference: PMC6827314, “An aldo-keto reductase with 2-keto-L-gulonate reductase activity functions in L-tartaric acid biosynthesis from vitamin C in Vitis vinifera” (The Journal of Biological Chemistry, 2019)

Assays:
[1] = substrate: O=C(O)C(=O)[C@@H](O)[C@H](O)[C@@H](O)CO; assay: purified protein; type: biochemical, Vitis vinifera; settings: 1 mM NADPH, 100 mM HEPES pH 7.5, 37 °C
[2] = substrate: O=C(O)C(=O)CO; assay: purified protein; type: biochemical, Vitis vinifera; settings: 1 mM NADPH, 100 mM HEPES pH 7.5, 37 °C
[3] = substrate: O=CC(=O)O; assay: purified protein; type: biochemical, Vitis vinifera; settings: 1 mM NADPH, 100 mM HEPES pH 7.5, 37 °C
[4] = substrate: CC(=O)C(=O)O; assay: purified protein; type: biochemical, Vitis vinifera; settings: 1 mM NADPH, 100 mM HEPES pH 7.5, 37 °C
[5] = molecular target: the molecule itself; assay: crystal structure; ligand-free Vv2KGR, space group P2(1), four subunits (chains A-D) in the asymmetric unit, 1.58 Å; crystals from 1.26 M ammonium sulfate, 100 mM sodium acetate/acetic acid pH 4.5, 200 mM NaCl, 16 °C; oligomeric interface analysed with PDBePISA

B1: Vitis vinifera 2-keto-L-gulonate reductase (Vv2KGR) (enzyme, UniProt A5CAL1 1-313, looked up)
chain: MESIGVLLTCPMNPYLEQELDKRFKLFRFWDFPSANDLFREHSNSIRAVVGNSFIGADAQMIEALPKMEIVSSFSVGLDKIDLVRCKEKGIRVTNTPDVLTEDVADLALALILATLRRICESDRYVRSGSWKKGDFKLTTKFTGKSVGIIGLGRIGSAIAKRAEGFSCPISYHSRTEKPGTNYKYYPSVVELASNCQILVVACALTPETRHIINREVINALGPKGVVINIGRGLHVDEPELVSALVEGRLGGAGLDVFENEPNVPEELLAMDNVVLLPHVGSGTVETRKDMADLVLGNLEAHFLNKPLLTPVV
notes: Vv2KGR, Vitis vinifera cv; The forward primer carries an ATG of the NdeI site directly before the gene's own ATG; also called aldo-keto reductase; apo-Vv2KGR; source: E. coli BL21(DE3) pLysS-T1, pET14b, purified (HisTrap FF Crude, HiTrap Q HP, dialysis); not shown: His tag (from the vector pET14b)
With B1 the Km [1] was 700 µM, the Vmax [1] was 7.54 µmol/min/mg and the kcat [1] was 4.18 s⁻¹. It also gave a Km [2] of 96 µM, a Vmax [2] of 6.29 µmol/min/mg and a kcat [2] of 6.97 s⁻¹. It also gave a Km [3] of 44 µM, a Vmax [3] of 13.8 µmol/min/mg and a kcat [3] of 38.3 s⁻¹. For the same protein, the Km [4] was 1371 µM and the “stoichiometry N” value [5] was 2.
